# B1: HDV Ribozyme (parent)
# chain: GGCCGGCAUGGUCCCAGCCUCCUCGCUGGCGCCGGCUGGGCAACAUUCCGAGGGGACCGUCCCCUCGGUAAUGGCGAAUGGGACCCA
# Variants of: B1
# Test: self-cleavage, relative activity (ratio to wild type); higher = more cleavage; co-transcriptional
row,Variant,self-cleavage
1,GGCCGGCAUGGUCCCAGGCUCCUCGCUGGCGCCGGCUGGGCAACAUUCCCAGGGGACCGUCCCCUCGGUAAUGGCGAAUGGGACCCA [C18G G50C],0
2,GGCCGGCAAGGUCCCAGCCUCCUCGCAGGCGCCGGCUGGGCAACAUUCCGAGGGGACCGUCCCCUCGGUAAUGGCGAAUGGGACCCA [U9A U27A],0.9
3,GGCCGGCUUGGUCCCAGCCUCCUCGCUGGCGCCGUCUGGGCAACAUUCCGAGGGGACCGUCCCCUCGGUAAUGGCGAAUGGGACCCA [A8U G35U],0.262
4,GGCCGGCAUGGUCCCAGCCUCCUCGCUGGCGCCGGCUGGGCAACAUUCCGAGGGGACCGUCCCCUCGGUAAUGGCGAAUGGAAGCCA [G82A C84G],0.232
5,GGCCGGCAUGAUCCCAGCGUCCUCGCUGGCGCCGGCUGGGCAACAUUCCGAGGGGACCGUCCCCUCGGUAAUGGCGAAUGGGACCCA [G11A C19G],0.0231
6,GGCCGGCAUGGUCCCAGCCUCCUCGCUGGCGCCGGCUGGGCAACAUUCCGAGGGGAUCGUCCCCACGGUAAUGGCGAAUGGGACCCA [C57U U65A],0.917
7,GGCCGGCAUGGUCCCAGCCUCCUCGCUGGCGCCGGCUGGGCAACAUUACGAGGGGACCGUCCCCUCGGUAAUGGCGGAUGGGACCCA [C48A A77G],0.601
8,GGCCGGCAUGGUCCCAGCCUCCUCGCUGGCGCCGGCUGGGCAGCAUUCCGAGGGGACCGUCCCCUCGGUAAUGGCGAAUGGAACCCA [A43G G82A],0.138
9,GGCCGGCAUGGUCCCAGCCUCCUCGCUGGCGCCGGCUGGGCAACACUCCGAGGGGACCGUCCCCUCGGUAAUGGCGAAUGGGGCCCA [U46C A83G],0.402
10,GGCCGGCAUGGUCCCAGCCUCCUCGCUGGCGCCGGCUGGGCAACAUUCCCAGGGGACCGUCCCCCCGGUAAUGGCGAAUGGGACCCA [G50C U65C],1.05
11,GGCCGGCAUGGUCCCAGCCUCCUCGCUGGCGCCGGCUGGGCAUCAUUCCGAGGGGACCGUCCCCUCGGUAAUGGCGAAAGGGACCCA [A43U U79A],0.122
12,GGCCGGCAUGGUCCCAGCCUCCUCGCUGGCGCCGGCUGGGCAACAUUCCGAGGGGACCGUCACCUCGGUAAUGGCGAAUGGGACCCA [C62A],0.979
13,GGCCGGCAUGGUCCGAGCCUCCUCGCGGGCGCCGGCUGGGCAACAUUCCGAGGGGACCGUCCCCUCGGUAAUGGCGAAUGGGACCCA [C15G U27G],0.104
14,GGCCGGCAUGGUACCAGCCUCCUCGCUGGCGCCGGCUGGGCAACAUUCCGAGUGGACCGUCCCCUCGGUAAUGGCGAAUGGGACCCA [C13A G53U],0.138
15,GGCCGGCAUGGUCCCAGCCUCCUCGCUGCCGCCGGCUGGGCAACAUUCCGAGGGGACCGUCCCCUUGGUAAUGGCGAAUGGGACCCA [G29C C66U],0.0573
16,GGCCGGCAUGGUCCCAGCCUCCUCGCUGGCGCGGGCUGGGCAGCAUUCCGAGGGGACCGUCCCCUCGGUAAUGGCGAAUGGGACCCA [C33G A43G],0

row,Variant,self-cleavage
1,GGCCGGCAUGGUCCCAGCCUCCUCGCUGGCGCCGUCUGGGCAACAUUCCGAGGGGACCGUCCCCUCGGUAAUGGCGAAUGGGCCCCA [G35U A83C],0.181
2,GGCCGGCAUGGUCCCAGCCUCCUCGCUGGCGCCGGCGGGGCAACAUUCCGAGGGGACCGUCCCAUCGGUAAUGGCGAAUGGGACCCA [U37G C64A],0.122
3,GGCUGGCAUGGUCCCAGCCUCCUCGCUGGCGCCGGCUGGGCAACAUUCCGAGGGGACCGUCCCCUCGGUAAUGGCGAAUGGGCCCCA [C4U A83C],0.111
4,GGCCGGCAUGGUCCCAGCCUCCGCGCUGGCGCCGGCUGGGCAACAUUCCGAGGGGACCGUCCCCUCGGUAAUGGCGAAUGGUACCCA [U23G G82U],0.17
5,GGCCGGCAUGGUCCCAGCCUCCUCGCUGGCGCCGGCUGGGCAACAUUCCGACGGGACCGUCCCCUCGGUGAUGGCGAAUGGGACCCA [G52C A70G],0.702
6,GGCCGGCAUGGUCCCAGCCUCCUCGCUGGCGCCGGCUGGGCAACAUUCCGAGGGGACCGACCCCUCGGUAAUGGCGAAUAGGACCCA [U60A G80A],0.3
7,GGCCGGCAUGGUCCCAGCCUCCGCGCUGGCGCCGGCUGGGCAACAUUCCGAGGGGACCGUCCCCUCGGUAAUGGCGGAUGGGACCCA [U23G A77G],0.554
8,GGCCGGCAUGGUCCCAGCCUCCUCGCUGGCGCCGGCUGGGCAACAUUCCGAGGGGACCGUUCCCUCAGUAAUGGCGAAUGGGACCCA [C61U G67A],0.562
9,GGCCGGCAUGGUCCCAGCCUCCUCGCUGGCGACGGCUGGGCAACAUUCCGAGGGGACCGUCCCCUCGGUAAUGGCGAAUGGGACCGA [C32A C86G],0.243
10,GGCCGGCAUAGUCCCAGACUCCUCGCUGGCGCCGGCUGGGCAACAUUCCGAGGGGACCGUCCCCUCGGUAAUGGCGAAUGGGACCCA [G10A C18A],0.0567
11,GGCCGGCAUGGACCCAGCCUCCUCGCUGGCGCCGGCUGGGCAACAUUCUGAGGGGACCGUCCCCUCGGUAAUGGCGAAUGGGACCCA [U12A C49U],0.499
12,GGCCGGCAUGGUCCCACCCUCCUCGCUGGCGCCGGCUGGGCAACAUUCCGAGGGGACCGUCCCCUCGGUAAUGGCUAAUGGGACCCA [G17C G76U],0.773
13,GGCCGGCAUGGUCCCAUCCUCCUCACUGGCGCCGGCUGGGCAACAUUCCGAGGGGACCGUCCCCUCGGUAAUGGCGAAUGGGACCCA [G17U G25A],0.0489
14,GGCCGGCAUGGUCCCAGCCUCUUCGCUUGCGCCGGCUGGGCAACAUUCCGAGGGGACCGUCCCCUCGGUAAUGGCGAAUGGGACCCA [C22U G28U],0.148
15,GCCCGGCAUGGUCCCAGCCUCCUCGCUCGCGCCGGCUGGGCAACAUUCCGAGGGGACCGUCCCCUCGGUAAUGGCGAAUGGGACCCA [G2C G28C],0.0475
16,GGCCGGCAUGGUCCCAGCCUCCUCGCUGGCGCCGGCUGGGCAAUAUUCCGAGGGGACCGUCCCCUCGGUAAUGGUGAAUGGGACCCA [C44U C75U],0.157
